In patent publication US20110177071A1 (PERSEID THERAPEUTICS, published 2011):

T1: human CD80-murine Ig fusion protein (human)
T1 construct: Bought (Ancell #510-820); also called hCD80-mIg; human CD80-murine IgG
T1 chain: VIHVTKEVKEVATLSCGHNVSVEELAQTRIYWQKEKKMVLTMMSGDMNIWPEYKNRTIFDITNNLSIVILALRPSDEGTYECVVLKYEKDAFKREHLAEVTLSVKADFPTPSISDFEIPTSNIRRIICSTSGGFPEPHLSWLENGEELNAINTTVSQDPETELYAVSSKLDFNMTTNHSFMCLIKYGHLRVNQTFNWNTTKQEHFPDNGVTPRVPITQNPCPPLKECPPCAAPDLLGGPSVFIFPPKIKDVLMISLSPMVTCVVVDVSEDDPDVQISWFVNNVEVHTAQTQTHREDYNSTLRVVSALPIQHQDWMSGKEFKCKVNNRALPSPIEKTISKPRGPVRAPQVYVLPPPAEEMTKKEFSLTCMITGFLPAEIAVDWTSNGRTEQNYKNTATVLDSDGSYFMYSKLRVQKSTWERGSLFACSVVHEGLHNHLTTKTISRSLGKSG

T2: human CD86-murine Ig fusion protein (human)
T2 construct: Bought (Ancell #509-820); also called hCD86-mIg
T2 chain: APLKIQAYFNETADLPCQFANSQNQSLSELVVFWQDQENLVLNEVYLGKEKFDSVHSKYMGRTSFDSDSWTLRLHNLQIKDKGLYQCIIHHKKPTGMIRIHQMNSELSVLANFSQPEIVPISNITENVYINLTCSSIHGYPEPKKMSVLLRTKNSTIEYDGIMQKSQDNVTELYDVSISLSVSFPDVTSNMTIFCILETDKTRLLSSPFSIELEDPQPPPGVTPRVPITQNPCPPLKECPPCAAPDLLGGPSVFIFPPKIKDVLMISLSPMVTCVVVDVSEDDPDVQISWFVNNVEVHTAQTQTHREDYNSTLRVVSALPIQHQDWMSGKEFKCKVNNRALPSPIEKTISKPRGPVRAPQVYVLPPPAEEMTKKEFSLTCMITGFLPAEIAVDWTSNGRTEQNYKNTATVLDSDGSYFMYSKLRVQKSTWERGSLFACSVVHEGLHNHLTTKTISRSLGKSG


Assays:
[1] = biological target: T1, human CD80-murine Ig fusion protein; assay: SPR Biacore, hCD80-mIg captured
Method: (§1) All Biacore™ analyses were performed on a Biacore™ 2000 system (GE Healthcare) at room temperature (RT, 25° C.). HBS-EP buffer (10 mM HEPES (pH 7.4), 150 mM NaCl, 3 mM EDTA, 0.005% surfactant P20) was used as the flow buffer for all experiments.
(§2) Rabbit anti-mouse IgG antibody (GE Healthcare, #BR-1005-14) was immobilized on CM5 sensor chips (GE Healthcare, #BR-1000-14) according to the manufacturer's protocol. Antibody was diluted to 30 μg/ml in immobilization buffer (10 mM sodium acetate, pH 5.0 (BR-1003-51)). At a flow rate of 5 μl/minute, sensor chip CM5 was activated with a 35 μl injection of a mixture of 1-Ethyl-3-[3-dimethylaminopropyl]carbodiimide hydrochloride (EDC) and N-hydroxysuccinimide (NHS) (made by mixing equal volumes of 11.5 mg/ml EDC and 75 mg/ml NHS) (GE Healthcare, #BR-1000-50), followed by a 35 μl injection of undiluted antibody. Un-reacted sites were quenched with 35 μl of 1M ethanolamine-HCL, pH 8.5 (GE Healthcare, #BR-1000-50). […] CTLA-4 ligands human CD80-murine Ig (hCD80-mIg) (Ancell, #510-820) or human CD86-murine Ig (hCD86-mIg) (Ancell, #509-820) were bound to antibody-coated sensor chips by injection of 10 μl or 16 μl, respectively, ligand solution (2 μg/ml protein in HBS-EP buffer [10 mM HEPES pH 7.4, 150 mM NaCl, 3 mM EDTA, 0.005% (v/v) surfactant P-20, GE Healthcare, #BR-1001-88]) at a flow rate of 10 μl/min.

[2] = biological target: T2, human CD86-murine Ig fusion protein; assay: SPR Biacore, hCD86-mIg captured
Method: as §1, §2

Row | Binder | Binding Avidity (Relative to Orencia) [1] | Kd [1] | Kd [2] | Binding Avidity (Relative to Orencia) [2]
1 | D1T-IgG2 (Fc fusion) MHVAQPAVVLASSRGIASFVCEYESPHKANEIRVTVLRQANSQVTEVCAMTYMKGDELTFLDDPFCTGTFSGNQVNLTIQGLRAADTGLYICKVELMYPPPYYLGIGNGTQIYVIDPEPCPDSDERKCCVECPPCPAPPVAGPSVFLFPPKPKDTLMISRTPEVTCVVVDVSHEDPEVQFNWYVDGVEVHNAKTKPREEQFNSTFRVVSVLTVVHQDWLNGKEYKCKVSNKGLPAPIEKTISKTKGQPREPQVYTLPPSREEMTKNQVSLTCLVKGFYPSDIAVEWESNGQPENNYKTTPPMLDSDGSFFLYSKLTVDKSRWQQGNVFSCSVMHEALHNHYTQKSLSLSPG | > 2 fold | < 0.439 nM | 0.262 to 0.523 nM | –
2 | D3-1-IgG2 (Fc fusion) MHVAQPAVVLASSRGIASFVCEYASPGKANEIRVTVLRQAGSQVTEVCAMTYMKGDELTFLDDPSCTGTFSGNQVNLTIQGLRAADTGLYICKVELMYPPPYYLGFGNGTQIYVIDPEPCPDSDERKCCVECPPCPAPPVAGPSVFLFPPKPKDTLMISRTPEVTCVVVDVSHEDPEVQFNWYVDGVEVHNAKTKPREEQFNSTFRVVSVLTVVHQDWLNGKEYKCKVSNKGLPAPIEKTISKTKGQPREPQVYTLPPSREEMTKNQVSLTCLVKGFYPSDIAVEWESNGQPENNYKTTPPMLDSDGSFFLYSKLTVDKSRWQQGNVFSCSVMHEALHNHYTQKSLSLSPG | – | 0.439 to 1.75 nM | < 0.131 nM | > 40 fold
3 | D3-5-IgG2 (Fc fusion) MHVAQPAVVLASSRGIASFVCEYESPGKANEIRVTVLRQAGSQVTEVCAATYMKGDELTFLDDPSCTGTFSGNQVNLTIQGLRAADTGLYICKVELMYPPPYYLGFGNGTQIYVIDPEPCPDSDERKCCVECPPCPAPPVAGPSVFLFPPKPKDTLMISRTPEVTCVVVDVSHEDPEVQFNWYVDGVEVHNAKTKPREEQFNSTFRVVSVLTVVHQDWLNGKEYKCKVSNKGLPAPIEKTISKTKGQPREPQVYTLPPSREEMTKNQVSLTCLVKGFYPSDIAVEWESNGQPENNYKTTPPMLDSDGSFFLYSKLTVDKSRWQQGNVFSCSVMHEALHNHYTQKSLSLSPG | – | 0.439 to 1.75 nM | 0.131 to 0.262 nM | –
4 | D3-7-IgG2 (Fc fusion, also called D3-07) MHVAQPAVVLASSRGIASFVCEYESPGKANEIRVTVLRQAGSQVTEVCAMTYMKGNELTFLDDPSCTGTFSGNQVNLTIQGLRAADTGLYICKVELMYPPPYYLGFGNGTQIYVIDPEPCPDSDERKCCVECPPCPAPPVAGPSVFLFPPKPKDTLMISRTPEVTCVVVDVSHEDPEVQFNWYVDGVEVHNAKTKPREEQFNSTFRVVSVLTVVHQDWLNGKEYKCKVSNKGLPAPIEKTISKTKGQPREPQVYTLPPSREEMTKNQVSLTCLVKGFYPSDIAVEWESNGQPENNYKTTPPMLDSDGSFFLYSKLTVDKSRWQQGNVFSCSVMHEALHNHYTQKSLSLSPG | – | 0.439 to 1.75 nM | < 0.131 nM | > 40 fold
5 | D3-8-IgG2 (Fc fusion) MHVAQPAVVLASSRGIASFVCEYESPGKANEIRVTVLRQAGSQVTEVCAMTYMKGDELTFLDDSSCTGTFSGNQVNLTIQGLRAADTGLYICKVELMYPPPYYLGFGNGTQIYVIDPEPCPDSDERKCCVECPPCPAPPVAGPSVFLFPPKPKDTLMISRTPEVTCVVVDVSHEDPEVQFNWYVDGVEVHNAKTKPREEQFNSTFRVVSVLTVVHQDWLNGKEYKCKVSNKGLPAPIEKTISKTKGQPREPQVYTLPPSREEMTKNQVSLTCLVKGFYPSDIAVEWESNGQPENNYKTTPPMLDSDGSFFLYSKLTVDKSRWQQGNVFSCSVMHEALHNHYTQKSLSLSPG | – | 0.439 to 1.75 nM | 0.131 to 0.262 nM | –
6 | D3-9-IgG2 (Fc fusion) MHVAQPAVVLASSRGIASFVCEYESPGKANEIRVTVLRQAGSQVTEVCAMTYMKGDELTFLDDPICTGTFSGNQVNLTIQGLRAADTGLYICKVELMYPPPYYLGFGNGTQIYVIDPEPCPDSDERKCCVECPPCPAPPVAGPSVFLFPPKPKDTLMISRTPEVTCVVVDVSHEDPEVQFNWYVDGVEVHNAKTKPREEQFNSTFRVVSVLTVVHQDWLNGKEYKCKVSNKGLPAPIEKTISKTKGQPREPQVYTLPPSREEMTKNQVSLTCLVKGFYPSDIAVEWESNGQPENNYKTTPPMLDSDGSFFLYSKLTVDKSRWQQGNVFSCSVMHEALHNHYTQKSLSLSPG | – | 0.439 to 1.75 nM | < 0.131 nM | > 40 fold
7 | D3-16-IgG2 (Fc fusion) MHVAQPAVVLASSRGIASFVCEYESPGKANEIRVTVLRQAGSQVTEVCAMTYMKGDELTFLDDPSCTGTFSGNQVNLTIQGLRAMDTGLYICKVELMYPPPYYLGIGNGTQIYVIDPEPCPDSDERKCCVECPPCPAPPVAGPSVFLFPPKPKDTLMISRTPEVTCVVVDVSHEDPEVQFNWYVDGVEVHNAKTKPREEQFNSTFRVVSVLTVVHQDWLNGKEYKCKVSNKGLPAPIEKTISKTKGQPREPQVYTLPPSREEMTKNQVSLTCLVKGFYPSDIAVEWESNGQPENNYKTTPPMLDSDGSFFLYSKLTVDKSRWQQGNVFSCSVMHEALHNHYTQKSLSLSPG | – | 0.439 to 1.75 nM | < 0.131 nM | > 40 fold
8 | D3-19-IgG2 (Fc fusion) MHVAQPAVVLASSRGIASFVCEYESPGKANEIRVTVLRQADSQVTEVCAMTYMKGNELTFLDDPSCTGTFSGNQVNLTIQGLRAADTGLYICKVELMYPPPYYLGIGNGTQIYVIDPEPCPDSDERKCCVECPPCPAPPVAGPSVFLFPPKPKDTLMISRTPEVTCVVVDVSHEDPEVQFNWYVDGVEVHNAKTKPREEQFNSTFRVVSVLTVVHQDWLNGKEYKCKVSNKGLPAPIEKTISKTKGQPREPQVYTLPPSREEMTKNQVSLTCLVKGFYPSDIAVEWESNGQPENNYKTTPPMLDSDGSFFLYSKLTVDKSRWQQGNVFSCSVMHEALHNHYTQKSLSLSPG | – | 0.439 to 1.75 nM | 0.131 to 0.262 nM | –
9 | D3-21-IgG2 (Fc fusion) MHVAQPAVVLASSRGIASFVCEYESPGKANEIRVTVLRQADSQVTEVCAMTYMKGNELTFLDDPSCTGTFSGNQVNLTIQGLRAMDTGLYICKVELMYPPPYYLGFGNGTQIYVIDPEPCPDSDERKCCVECPPCPAPPVAGPSVFLFPPKPKDTLMISRTPEVTCVVVDVSHEDPEVQFNWYVDGVEVHNAKTKPREEQFNSTFRVVSVLTVVHQDWLNGKEYKCKVSNKGLPAPIEKTISKTKGQPREPQVYTLPPSREEMTKNQVSLTCLVKGFYPSDIAVEWESNGQPENNYKTTPPMLDSDGSFFLYSKLTVDKSRWQQGNVFSCSVMHEALHNHYTQKSLSLSPG | – | 0.439 to 1.75 nM | 0.131 to 0.262 nM | –
10 | D3-22-IgG2 (Fc fusion) MHVAQPAVVLASSRGIASFVCEYESPGKANEIRVTVLRQAGSQVTEVCAMTYMKGNELTFLDDPSCTGTFSGNQVNLTIQGLRAMDTGLYICKVELMYPPPYYLGIGNGTQIYVIDPEPCPDSDERKCCVECPPCPAPPVAGPSVFLFPPKPKDTLMISRTPEVTCVVVDVSHEDPEVQFNWYVDGVEVHNAKTKPREEQFNSTFRVVSVLTVVHQDWLNGKEYKCKVSNKGLPAPIEKTISKTKGQPREPQVYTLPPSREEMTKNQVSLTCLVKGFYPSDIAVEWESNGQPENNYKTTPPMLDSDGSFFLYSKLTVDKSRWQQGNVFSCSVMHEALHNHYTQKSLSLSPG | – | 0.439 to 1.75 nM | 0.131 to 0.262 nM | –
